Experimental findings from the nanobody polyreactivity screen of Harvey et al. (2022) are described below.

The nature of this data set: yeast display, Sf9 membrane polyspecificity reagent, FACS + sequencing; frameworks hold sequencing errors. Summed up:
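Polyreactivity labels are assigned by the sorting gate from which each nanobody was recovered. The gates were low and high (top ~1%), set on anti-HA fluorescence for expression and streptavidin fluorescence for reagent binding. Before sorting, galactose-induced (36–48 hours) yeast display cells were stained for 1 hour at 4 °C with 10% biotinylated, detergent-solubilized Sf9 membrane reagent.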
Take “QDQLVDSGGGLVQAGGSLRLSCAASGFNFGYYAMGWYRQAPRKERELVAAISRSGGRTYYADSVKGRFTISRDNAKNTVYLQMNILNPEDTAVYYCNARHYLSAYDYWGQGTQVTVSS”: the “polyreactivity (PSR sort gate)” value is recorded as “high polyreactivity”.
In the case of “QDQLVDSGGGLVQAGGSLRLSCAASGRTFTVYAMGWYRQAPGKERELVAAISGSSGSTDYADSVKGRFTISRDNAKNTVYLQMNSLKPEDTAVYYCAKASSATRYVQLRQDYDYWGQGTQVTVSS”, the “polyreactivity (PSR sort gate)” value is “low polyreactivity”.
For “QDQLVESAGGLLQAGGSLRLSCAASGSTFKYNAMGWYRQAPGKERELVDSITRGGNTNYADSVKGRFTISRDNAKNTVYLLMNSLKTEDTAFYYCAAQLMRDLRSPYSYNYWGQGTQVTVSS”, the “polyreactivity (PSR sort gate)” value is “low polyreactivity”.
Consider “QDQLVESAGGLVQAGGSLRLICAASGSTFALYAMGWYRQAAGTERELVAAISRSGGRTYYADSVKGRFTISRDNPKNTVYLQMNSLKPDDTAVYYCAADFSRPGGLDESWGQGTQVTVSS”, for which the “polyreactivity (PSR sort gate)” value is “high polyreactivity”.
In the case of “QDQLVESAGGLVQAGGSLRLSCAASGRIFVFNAMGWYIQAPGKERELVAGINRGASTYYADSVKGRFTISRDNAKNTVYFQMNSLKPEDTAVYYCAADNFWWTKLYYWGQGTQVTVSS”, the “polyreactivity (PSR sort gate)” value was “high polyreactivity”.
Regarding “QDQLVESAGGLVQAGGSLRLSCAASVITFVRYVMGWYRQAPGKEREFVARIRWRGGSTNYADSVKGRFTISRDNAKNTVYLQMNSLKPEDTAVYYCNAVRRASSGYDYWGQGTQVTVSS”, the “polyreactivity (PSR sort gate)” value is “high polyreactivity”.
In the case of “QDQLVESCGGLVQAGGSHRLTCAASGGTSWIYAMGWYRQAPRKARELVAVITWSGGSTYYADSVKGRFTISRDTAKNTVYLQMNSLKPEDTAVYYCATDYTGKWKDHYYYWGQGTQVTVSS”, the “polyreactivity (PSR sort gate)” value is recorded as “low polyreactivity”.
Consider “QDQLVESCGGLVQAGGSLRLSCAASGRTFYRYAMGWYIQAPGKERELVADITRRVGITHYADSVKGRFTISRDYAKNTVYLKMNSLKPEDTAVYYCAARKYGSRYRLKYDYWGQGTQVTVSS”, for which the “polyreactivity (PSR sort gate)” value is given as “high polyreactivity”.
Consider “QDQLVESGAGLVQAGGSLRLSCAASGFNFYRYAMGWYREAPGKERELVATISVRGGTYYADSVKGRFTISRDNAKNTVYLQMNSLKPEDTAVYYCAARVHLWGDTLKFVRVGYWGQGTQVTVSS”, for which the “polyreactivity (PSR sort gate)” value is recorded as “low polyreactivity”.
On to “QDQLVESGGCLVQAGGSLRLSCAASGRIIIGYVMGWYRQAPVKERELVATISYSGGSTYADSVKGRFTISRDNAKNTVYLLMNSLKPEDTAVYYCNALFAGHKYYTVTSKYDYWGQGTQVTLSS”, for which the “polyreactivity (PSR sort gate)” value is “high polyreactivity”.
Consider “QDQLVESGGGFVQAGGSLRLSCAASGITFPLYALGRYRQPPGKERELVAAISRNGGRTYYADSVKVRFTMSRDNAKNTVYLQMNSMKPEDTAVYYCAKVSRGSVSSPPDDYWGQGTQVTVSS”, for which the “polyreactivity (PSR sort gate)” value is listed as “high polyreactivity”.
With “QDQLVESGGGFVQAGGSLRLSCAASGLTFWYYAMGWYRQATGKEVELVAANDWSGASTYYADSVKGRFTISRDNAKNTVYLQMISLQPEDTAVYYCNTVYYIGDDYWGQGTQVTVSS”, the “polyreactivity (PSR sort gate)” value is “high polyreactivity”.
As for “QDQLVESGGGFVQARGSLRLSCAACGFIFYANAMGWYRQAPGKERELVAGISWSGTSTYYADSVKGRFTISRDNAKNTVYLQMNSLKPEDTAVYYCNRVFYHFDVDRYDYWGQGTQVTVSS”, the “polyreactivity (PSR sort gate)” value is “low polyreactivity”.
“QDQLVESGGGIVQAGGILRLSCASSGFIFRGYAMGWYRQAPGKEWELVAAINSGDSTNYADSVKGRFTISRDNAKNTVSLQMNSLKREDTAVYYCAASIYAALNGGEGYDYWGQGTQVTVSS”: the “polyreactivity (PSR sort gate)” value is given as “low polyreactivity”.
Regarding “QDQLVESGGGIVQAGGRLRLSCAASGSIFRYYAMGWYRQAPGKERDLVAAINWDGGSTYYADSVKGRFTISRDNAKNTVYLQMNSLKPEDTAVYYCATTSRVYAYGYRTSNYWGQGTQVTVSS”, the “polyreactivity (PSR sort gate)” value is recorded as “high polyreactivity”.
For the sequence “QDQLVESGGGIVQAGGSLRLSCAASGRNFILNAMGLYRQAPGKERELVAAITWSGGGTYYADSVKGRFTISRDNAKNTVYLQMNSLKASDSAVYYCNRPAAVGEEDYWGQGTQVTVSS”, the “polyreactivity (PSR sort gate)” value is reported as “low polyreactivity”.
For “QDQLVESGGGIVQAGGSLRLSCAASGSTFPIYAMGWYRQAPGKERELVADITSTGSTDYADSVKGRFTISRDNAKNTVYLQMNSLKPEDTAVYYCAADYYYSAYFWSDFDYWGQGTQVTVSS” the value was “high polyreactivity”; for “QDQLVESGGGIVQAGGTLRLSCAASGRTIGGYDMGWDRQAPGKERQLVAAIRTGGRTNYADSVKGRFTISRDNAKNTVYLQLNSLKPEDTAVYYCNARRRIADPRAGIYDYCGQGTQVTVSS”, “high polyreactivity”; for “QDQLVESGGGLDQAGGSLRLSCAASGNTFWPYAMGWYRQAPGKESEFVAAITFRGGSTYYADSVKGRFTISRDNAKNTVYLQMNSLKPEDTAVYYCNAERGVWSGYFGYDYWGQGTQVTVSS”, “low polyreactivity”.
Consider “QDQLVESGGGLDQAGGSLRLSCAASGRIFKLYAMGWYRQAPGKERELVAAISKSGGNTYADSVKGRFTISRDNAKNTVYLQMNSLKPEETAVYYCAATVQSTSDPFDYWGQGTQVTVSS”, for which the “polyreactivity (PSR sort gate)” value was “low polyreactivity”.
As for “QDQLVESGGGLFKAGGSLRLSCAASGFIFSHYAMGWYRQAPGKERELVADISRSGTSTYYADSVTGRFTISRDNAKNTVYLQMNSLKPEDTAVYYFAKEYFFRGFNYRYDYWGQVTQVTVSS”, the “polyreactivity (PSR sort gate)” value is recorded as “high polyreactivity”.
As to “QDQLVESGGGLVHAGGSLRISCAASGRILYAYPMGWYRQAPGKERELVAAINWSGGSTYYADSVKGRFTISRDNAKNTVYLQMNSLKPEDTAVYYCNRVLDPTNKYYYWGQGTQVTVSS”, the “polyreactivity (PSR sort gate)” value is recorded as “high polyreactivity”.
As for “QDQLVESGGGLVPAVGSLRLTCAASGYTFWDYTMGLYRQAPGKERELGAAMSSSGSSTYYADSVKGRFTISRDNAKNTVYLQMNSLKPEDNAVYYCAAYSRRQWKYDYWGQGTHVTVSS”, the “polyreactivity (PSR sort gate)” value is “high polyreactivity”.
Regarding “QDQLVESGGGLVQAGASLRLICAASGFIFPSYAMGWYRKAPGKERELVAAISWTGGTYYADSVKGRFTISRDNAKNTVYLQMNSLKPEDTAVYYGAVRYKRKGSGYRTNAYDYWGQGTQVSVSS”, the “polyreactivity (PSR sort gate)” value is recorded as “high polyreactivity”.
As to “QDQLVESGGGLVQAGASLRLSCADSGFTFTTNAMGWYRHAPGKERELVAAISFSGGTTYYADSVKGRFTISRDNAKNTVYLQMNRLKPEDTAVYYCAAQPGQAWWSTDHDDYWGQGTQVTVSS”, the “polyreactivity (PSR sort gate)” value is “low polyreactivity”.
In the case of “QDQLVESGGGLVQAGCSLRLTCAASGSTFTSNAMGWYRQAPGKERYLVASISGSVGRTYYADSVKGRFTISRDNAKNTVYLQMNSLKPEDTAVYYCNDESRNLYSTQFDYWGQGTQVTVSS” it was “low polyreactivity”; in that of “QDQLVESGGGLVQAGGRLRLSCAASGYIFAYNAMGRDRQAPGKERELVAAISYSGGRTYYAYSVKGRFTISRYIAKNTVYLQMKSLKPEVTAVYYCAAPFRVGAGPATYDYWGQGTQVTVSS”, “high polyreactivity”; in that of “QDQLVESGGGLVQAGGSHRLSCAASGLTLTDNALGWYRQAPGKERELVAAISQSGGRTSYADSVKGRFTISRDNAKNTVYLQMNSLKPEDTAVYYCNTRRGSVAKYGYWGQGTQVTVSS”, “high polyreactivity”.
In the case of “QDQLVESGGGLVQAGGSLGLRCAATGSTFTYYTMGWYRQAAGKERELVAAISRTTGSTYYADSVKGRFTISRDNAKNTVYLQMNSLKPEDTAVYYCAAQSYKILLYFIGTAGDGYWGQGTQVTVSS” it was “low polyreactivity”.
In the case of “QDQLVESGGGLVQAGGSLLLSCAASGSTFYDYVMGWYRQAPGKERELVADISSGGGTNYADSLKGRFTISRDNAKNTVYLQMNSLKPEDTAVYYCAAYRYFFWYEFVSWGQGTQVTVSS” it was “high polyreactivity”; in that of “QDQLVESGGGLVQAGGSLPLSCAASANIFPLYAMGWYRQAPGKERELVAAITWSTTSTYYADSVKGRFTISRDNAKNTVYLQMNSLKPEDTAVYYCKAKTDESYYYSDYDYWVQGTQVTVSS”, “low polyreactivity”; in that of “QDQLVESGGGLVQAGGSLRISCAASGGTFKSYAMGWYREAPGKERELVATITRDGRTNYADSVKGRFTISRDNAKNTVYLQMNSLKPEDTAVYYCNADYWSVWIALEFTVDYWGQGTQVTVSS”, “low polyreactivity”.
Regarding “QDQLVESGGGLVQAGGSLRISCAASGSIFAWYAMAWYRESPGKERELVATITWSGGSTYYADSVKGRFTISRDNAKNTVYLQMNSLKPEDTAVYYCAAEVVGIWYDLWYQGDYWGQGTQVTVSS”, the “polyreactivity (PSR sort gate)” value is “low polyreactivity”.
On to “QDQLVESGGGLVQAGGSLRISCAASGSTFIYNAMGWYRQAPGKERELVATITGRGSTYYAYSVKGRFTISRDNAKNTVYLQLNSLKPEDTAVYYCAATIFNSFYWRYGYWGQGSQVTVSS”, for which the “polyreactivity (PSR sort gate)” value is “low polyreactivity”.
On to “QDQLVESGGGLVQAGGSLRITCAASGSIFSWYTMGRYRQAPGKEMELVAAISGCGSRTYYADSVKGRFTISRDIEKNTVYLQMNSLKPEDTALYYCNTVNTWSVYYAYDYWGQGTQVTVSS”, for which the “polyreactivity (PSR sort gate)” value is “high polyreactivity”.
As for “QDQLVESGGGLVQAGGSLRLICAASGLIFGFNTMACYRQAPGKESEFVAAINGSDGSTYADSVKGRFTISRDNAKNTVYLQMNSLKPEDTAVYYCAARYGSPKEYTYADMDYWGQGTQVTVSS”, the “polyreactivity (PSR sort gate)” value was “low polyreactivity”.
Consider “QDQLVESGGGLVQAGGSLRLICAASGRTFGSYTMGWYRQAPGKERELVAAITSGGRTNYADSVKGRFTISRDNAKNTVYLQMNSLKPEDTAVYYCAAGWRGGRYRYFAYDYWGQGTQVTVSS”, for which the “polyreactivity (PSR sort gate)” value is reported as “high polyreactivity”.
For “QDQLVESGGGLVQAGGSLRLICAASGSIFTFYDMGWYRQAAGNERELVAAISSGGSTTYADSVKGRFTISRDNAKNTVYLQMNSLKPEDTAFYYCAADSQPYLYPVEYDYWRQGTQVTVSS” the value was “low polyreactivity”; for “QDQLVESGGGLVQAGGSLRLICAASGSNFGYYGMGWYRQAPGKEREFVAAITFSGGSTYYADSVKGRFTISRDNAKNTVYLQMNSLKPEDTAVYYFAAVYYGPYTYRHKMYYWGQGTQVTVSS”, “low polyreactivity”.
In the case of “QDQLVESGGGLVQAGGSLRLSCAASAFTFGRNAKGWYRQATGKERELVATITWSGGSTYYADSVKGRFTISRDNAKNTVYLQMNSLKPEDTAVYYCAKQRRYWGQPSRAYEFNYWGQGTQVTVSS” it was “high polyreactivity”.
